According to patent US6458943 (INSTITUT NATIONAL DE LA SANTE ET DE LA RECHERCHE MEDICALE, dated 2002):

B1: hD54+ins2 interactor (GAL4 activation domain fusion, pACT2hD54+ins2) (other)
chain: ANFNQSGNIADSSLSFTFTNSSNGPNLITTQTNSQALSQPIASSNVHDNFMNNEITASKIDDGNNSKPLSPGWTDQTAYNAFGITTGMFNTTTMDDVYNYLFDDEDTPPNPKKEMDSAGQDINLNSPNKGLLSDSMTDVPVDTGVAARTPAVEGLTEAEEEELRAELTKVEEEIVTLRQVLAAKEKHCGELKRRLGLSTLGELKQNLSRSWHDVQVSSAYVKTSEKLGEWNEKVTQSDLYKKTQETLSQAGQKTSAALSTVGSAISRKLGDMRNSATFKSFEDRVGTIKSKVVGDRENGSDNLPSSAGSGDKPLSDPAPF
notes: range 768-881
B2: hD52 interactor (GAL4 activation domain fusion, pAD-GAL4hD52) (other)
chain: PSALFGGANFNQSGNIADSSLSFTFTNSSNGPNLITTQTNSQALSQPIASSNVHDNFMNNEITASKIDDGNNSKPLSPGWTDQTAYNAFGITTGMFNTTTMDDVYNYLFDDEDTPPNPKKEMDRGEQGLLRTDPVPEEGEDVAATISATETLSEEEQEELRRELAKVEEEIQTLSQVLAAKEKHLAEIKRKLGINSLQELKQNIAKGWQDVTATSAYKKTSETLSQAGQKASAAFSSVGSVITKKLEDVKNSPTFKSFEEKVENLKSKVGGTKPAGGDFGEVLNSAANASATTTEPLPEKTQESL
notes: range 761-881; also called hD52^c
B3: hD53 interactor (GAL4 activation domain fusion, pACT2hD53) (other)
chain: ANFNQSGNIADSSLSFTFTNSSNGPNLITTQTNSQALSQPIASSNVHDNFMNNEITASKIDDGNNSKPLSPGWTDQTAYNAFGITTGMFNTTTMDDVYNYLFDDEDTPPNPKKEMEAQAQGLLETEPLQGTDEDAVASADFSSMLSEEEKEELKAELVQLEDEITTLRQVLSAKERHLVEIKQKLGMNLMNELKQNFSKSWHDMQTTTAYKKTHETLSHAGQKATAAFSNVGTAISKKFGDMSYSIRHSISMPAMRNSPTFKSFEERVETTVTSLKTKVGGTNPNGGSFEEVLSSTAHASAQSLAGGSRRTKEEELQC
notes: range 768-881
B4: hD54-ins2 interactor (GAL4 activation domain fusion, pACT2hD54-ins2) (other)
chain: ANFNQSGNIADSSLSFTFTNSSNGPNLITTQTNSQALSQPIASSNVHDNFMNNEITASKIDDGNNSKPLSPGWTDQTAYNAFGITTGMFNTTTMDDVYNYLFDDEDTPPNPKKEMDSAGQDINLNSPNKGLLSDSMTDVPVDTGVAARTPAVEGLTEAEEEELRAELTKVEEEIVTLRQVLAAKEKHCGELKRRLGLSTLGELKQNLSRSWHDVQVSSAYKKTQETLSQAGQKTSAALSTVGSAISRKLGDMRNSATFKSFEDRVGTIKSKVVGDRENGSDNLPSSAGSGDKPLSDPAPF
notes: range 768-881
B5: mD52(1-163) interactor (GAL4 activation domain fusion, pACT2mD52(1-163)) (other)
chain: ANFNQSGNIADSSLSFTFTNSSNGPNLITTQTNSQALSQPIASSNVHDNFMNNEITASKIDDGNNSKPLSPGWTDQTAYNAFGITTGMFNTTTMDDVYNYLFDDEDTPPNPKKEMDRGEQGLLKTEPVAEEGEDAVTMLSAPEALTEEEQEELRRELTKVEEEIQTLSQVLAAKEKHLAELKRKLGISSLQEFKQNIAKGWQDVTATNAYKKTSETLSQAGQKASAAFSSVGSVITKKLEDVKNSPTFKSFEEKVENLKSKVGGAKPAGGDFGEVLN
notes: range 768-881
B6: in vitro-translated 35S-labelled hD52 (pTL1hD52) (other)
chain: MDRGEQGLLRTDPVPEEGEDVAATISATETLSEEEQEELRRELAKVEEEIQTLSQVLAAKEKHLAEIKRKLGINSLQELKQNIAKGWQDVTATSAYKKTSETLSQAGQKASAAFSSVGSVITKKLEDVKNSPTFKSFEEKVENLKSKVGGTKPAGGDFGEVLNSAANASATTTEPLPEKTQESL
modifications: 35S-methionine label
B7: in vitro-translated 35S-labelled hD54-ins2 (pTL1hD54-ins2) (other)
chain: MDSAGQDINLNSPNKGLLSDSMTDVPVDTGVAARTPAVEGLTEAEEEELRAELTKVEEEIVTLRQVLAAKEKHCGELKRRLGLSTLGELKQNLSRSWHDVQVSSAYKKTQETLSQAGQKTSAALSTVGSAISRKLGDMRNSATFKSFEDRVGTIKSKVVGDRENGSDNLPSSAGSGDKPLSDPAPF
modifications: 35S-methionine label
B8: in vitro-translated 35S-labelled mD52 (pTL1mD52) (other)
chain: MDRGEQGLLKTEPVAEEGEDAVTMLSAPEALTEEEQEELRRELTKVEEEIQTLSQVLAAKEKHLAELKRKLGISSLQEFKQNIAKGWQDVTATNAYKKTSETLSQAGQKASAAFSSVGSVITKKLEDVKNSPTFKSFEEKVENLKSKVGGAKPAGGDFGEVLNSTANATSTMTTEPPPEQMTESP
modifications: 35S-methionine label
B9: +5 hD53 library interactor (novel hD53 isoform, pAD-GAL4 clone) (other)
chain: PSALFGGANFNQSGNIADSSLSFTFTNSSNGPNLITTQTNSQALSQPIASSNVHDNFMNNEITASKIDDGNNSKPLSPGWTDQTAYNAFGITTGMFNTTTMDDVYNYLFDDEDTPPNPKKESSWLPWSEVLHRPWRNHPICLLETEPLQGTDEDAVASADFSSMLSEEEKEELKAELVQLEDEITTLRQVLSAKERHLVEIKQKLGMNLMNELKQNFSKSWHDMQTTTAYKKTHETLSHAGQKATAAFSNVGTAISKKFGDMRRK
notes: range 761-881; also called nt 1 (Ser^1)
B10: hD53 library interactor, pAD-GAL4 clone beginning at nt 111 of the hD53 cDNA (<Met1) (other)
chain: PSALFGGANFNQSGNIADSSLSFTFTNSSNGPNLITTQTNSQALSQPIASSNVHDNFMNNEITASKIDDGNNSKPLSPGWTDQTAYNAFGITTGMFNTTTMDDVYNYLFDDEDTPPNPKKEMEAQAQGLLETEPLQGTDEDAVASADFSSMLSEEEKEELKAELVQLEDEITTLRQVLSAKERHLVEIKQKLGMNLMNELKQNFSKSWHDMQTTTAYKKTHETLSHAGQKATAAFSNVGTAISKKFGDMSYSIRHSISMPAMRNSPTFKSFEERVETTVTSLKTKVGGTNPNGGSFEEVLSSTAHASAQSLAGGSRRTKEEELQC
notes: range 761-881; also called nt 111 (<Met^1)
B11: hD53 library interactor, pAD-GAL4 clone beginning at nt 81 of the hD53 cDNA (<Met1) (other)
chain: B10 chain
notes: range 761-881; also called nt 81 (<Met^1)

These binders were tested against T1, hD54-ins2 bait (GAL4 DNA-binding domain fusion, pAS2-1hD54-ins2) (human, UniProt P04386 1-147 (Saccharomyces cerevisiae entry)) (assay: yeast two-hybrid, Y190 co-transfectants, HIS3/lacZ reporters; interactor (GAL4-AD fusion) against bait (GAL4-DB fusion)).
T1 construct: Fusion expressed in yeast
Experimental: (§1) Interactions between baits and interactors were assessed by qualitatively and/or quantitatively determining HIS3 and/or lacZ reporter gene activity in Y190 co-transfectants.
(§2) Interactions between D52-like proteins within the yeast two-hybrid system, as measured by quantitative β-galactosidase assays. […] Three (or two*) colonies from each co-transfected Y190 strain were cultured in the absence of histidine, and assayed separately for β-galactosidase activity (see Methods). The mean number of β-galactosidase activity units obtained for each co-transfection is presented, ± the standard error.
B1: binds. B2: binds. B3: binds. B4: binds. B5: binds.

The binders below were run against T2, hD54+ins2 bait (GAL4 DNA-binding domain fusion, pAS2-1hD54+ins2) (human, UniProt P04386 1-147 (Saccharomyces cerevisiae entry)) in the same assay as above.
T2 construct: Fusion expressed in yeast
Experimental: as §1, §2
B1: binds. B2: binds. B3: binds. B4: binds. B5: binds.

Each binder was assayed against T3, hD52 bait (GAL4 DNA-binding domain fusion, pAS2-1hD52) (human, UniProt P04386 1-147 (Saccharomyces cerevisiae entry)) in the same assay as above.
T3 construct: Fusion expressed in yeast; also called full-length hD52 bait
Experimental: as §1, §2
B1: binds. B2: binds. B3: binds. B4: binds. B5: binds.

What follows are binders tested against T4, hD53 bait (GAL4 DNA-binding domain fusion, pAS2-1hD53) (human, UniProt P04386 1-147 (Saccharomyces cerevisiae entry)) in the same assay as above.
T4 construct: Fusion expressed in yeast; also called full-length hD53 bait
Experimental: as §1, §2
B1: binds. B3: binds. B4: binds. B5: binds.

What follows are binders tested against GST protein (glutathione S-transferase alone) (UniProt P08515 1-218 = GST) (assay: GST pull-down, autoradiography).
GST protein (glutathione S-transferase alone), sequence (P08515 whole entry): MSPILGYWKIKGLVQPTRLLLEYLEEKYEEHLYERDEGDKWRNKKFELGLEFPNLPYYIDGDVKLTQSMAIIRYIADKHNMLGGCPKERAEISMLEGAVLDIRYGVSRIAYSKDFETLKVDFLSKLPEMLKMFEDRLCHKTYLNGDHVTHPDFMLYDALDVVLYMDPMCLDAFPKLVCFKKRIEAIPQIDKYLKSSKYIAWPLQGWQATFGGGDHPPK
Experimental: Proteins were isolated by incubating E. coli samples in isotonic lysis buffer (10 mM potassium phosphate pH 8.0, 140 mM KCl, 3 mM MgCl_2, 1 mM DTT, 0.5% Nonidet P-40, 0.5 mM PMSF) for 15 min on wet ice, followed by brief sonication. Protein product sizes were verified by electrophoresing pre- and post-induction protein samples on 10% SDS-polyacrylamide gels, followed by Coomassie Brilliant Blue staining. Post-induction protein extracts were incubated with glutathione-agarose (Sigma) which had been previously saturated in 0.5% (w/v) BSA (fraction V, Boehringer-Mannheim). Recombinant proteins (2–5 μg) bound to 30 μl glutathione agarose were then incubated with 7 μl of each in vitro translation reaction, and 2.6 mg soluble BL21 protein extract, prepared as described in Ausubel, F. M., el al., *Current Protocols in Molecular Biology* Vol. 3 (1996), for 2 h at 4° C. Matrixes were washed 3 times with 1 ml cold buffer (50 mM potassium phosphate pH 7.5, 150 mM KCl, 10 mM MgCl_2, 10% (v/v) glycerol, 1% Triton X-100, 0.5 mM PMSF), and bound proteins were eluted in 12 μl SDS-loading buffer (50 mM Tris pH 6.8, 2% (w/v) SDS, 10% (v/v) glycerol, 10% (v/v) 2-mercaptoethanol) by boiling for 5 min. Eluted proteins (6 μl) were separated on 10% SDS-polyacrylamide gels, which were stained with Coomassie Brilliant Blue, dried, and exposed to autoradiographic film (BioMax, Kodak) for 10 days at −80° C.
B6: no binding. B7: no binding. B8: no binding.

Each binder was assayed against T4, hD53 bait (GAL4 DNA-binding domain …) (assay: yeast two-hybrid screening of a human breast carcinoma cDNA library in Y190 (His+ lacZ+)).
B2: binds. B9: binds. B10: binds. B11: binds.
